Measurements from the supplement of paper PMC12042874.
± gives the uncertainty stated by the source.

assay: amyloid nucleation score (Sup35N fusion, yeast selection) (log enrichment); library NNK1; higher = more nucleation; inactive = no reads after selection
In short: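 The nucleation score is the log enrichment of output over input reads, calculated with DiMSum and centred on the mode score of non-aggregating sequences. Sequences with under 100 input reads were excluded. Reads came from Illumina sequencing of plasmid inserts from psi-negative yeast expressing Sup35N fused to peptides of 20 random codons, induced 24 hours with 100 μM copper sulfate and grown 7 days at 30°C without adenine and uracil.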

| Substance | amyloid nucleation score |
| --- | --- |
| RLSIFRLYPLLCRRG | 0.163 ± 0.34 |
| RLTFKYIKFAMS | 0.206 ± 0.36 |
| RLTVTADWHHHWRLVRQFKA | -0.044 ± 0.71 |
| RLVSRPRSLLQCYWGLVC | 0.392 ± 1.4 |
| RLYSYVFSGSPHIGWHLCSM | 3.82 ± 0.11 |
| RLYTFVLPRFILLEKRHSTN | 0.255 ± 0.32 |
| RMALCKSVCFTFWNIF | 3.69 ± 0.13 |
| RMHYIG | 0.106 ± 0.43 |
| RMLFSYPCESISSHLILCEV | -0.181 ± 0.5 |
| RMLLENVSVKRR | 0.678 ± 0.66 |
| RMLLRFYIATGYLWSIQNCR | inactive |
| RMLTARNGLGMMRL | -0.162 ± 1.1 |
| RMMVPYNHFYKSLWSGSTAY | 0.959 ± 0.68 |
| RMVNKTECTRRRIITTSNWI | 0.869 ± 0.81 |
| RMVTTIIERVSIVCMKPSYR | 1.35 ± 0.88 |
| RNASIRVTSQVCYVNS | 1.3 ± 0.27 |
| RNCFMGRTVNSVSNYVESSW | inactive |
| RNELTVFGLISPWESVFNLG | inactive |
| RNHCVYLECFDLVNHWMPKD | -0.24 ± 0.64 |
| RNMVSLRHSEDVICVQDTTP | -0.729 ± 0.34 |
| RNNEDGRLKDRRRGLSHGQG | -0.531 ± 0.31 |
| RNSMGLLAVEDVC | -1.16 ± 0.61 |

| Substance | amyloid nucleation score |
| --- | --- |
| RNSRAMIFEMHVVGLWWQSC | -0.538 ± 2.1 |
| RNTRTDSSTQTLLIVSHH | 0.011 ± 0.51 |
| RNTVQYVFYPQDLWWSAGVQ | 5.429 ± 0.048 |
| RNVLWMILMYRCRSGGLCNG | 0.737 ± 0.52 |
| RNYFCIMYRYRCCKV | 4.23 ± 0.085 |
| RPHSGVIDDL | 0.349 ± 0.51 |
| RPKHTGTINYKHVHTNYVEG | 1.36 ± 0.47 |
| RPLVRQPGEDYIFGLSSMCL | -0.203 ± 0.49 |
| RPMTVSKEAAKSDGCQKLNT | -0.634 ± 0.48 |
| RPNSYGSLWRERIGLIYTYE | 1.33 ± 0.79 |
| RQFRIGNYENFATREWALGL | 1.7 ± 0.14 |
| RQGLGAVVNENV | 0.137 ± 0.43 |
| RQGPGRLHSTCKTL | -0.257 ± 1.4 |
| RQNVQWR | 1.86 ± 0.62 |
| RQYDMDLVWKRSQNARKRS | 0.033 ± 0.7 |
| RRARFFFRGYY | 6.12 ± 0.078 |
| RRAYIYWNRTCFFLVILLFQ | 0.538 ± 0.84 |
| RRLKETKT | inactive |
| RRLTLYANFMRLEILSLNVN | 0.146 ± 0.43 |
| RRMVTCLQLIVRNLRSCACC | inactive |
| RRRMFSCLDPEVWEVQRGRV | -0.348 ± 0.68 |
| RRSPGYMDLCWNGWFGRAVR | 0.207 ± 0.5 |

| Substance | amyloid nucleation score |
| --- | --- |
| RRSQCSVEPGVWHRVRSFLV | 0.35 ± 0.77 |
| RRSYVSSEMNTSKRKSCPLS | 0.659 ± 0.45 |
| RRWGFRAERVL | 0.269 ± 0.61 |
| RRYFSLYLAGSLELMFAWVM | -1.79 ± 2.7 |
| RSFNYVLSTL | 0.45 ± 0.42 |
| RSGIILLVGVS | -0.655 ± 0.68 |
| RSGMFMGDWYSAAWKGKTSS | 0.137 ± 0.31 |
| RSGSLCGFLREKKVRNTFWV | -0.376 ± 0.59 |
| RSPIGGLLWINLRSPACEWG | inactive |
| RSRGCPRIFNGAKC | -0.392 ± 0.23 |
| RSSSYNSLIRKISDKLVGAA | 1.09 ± 0.56 |
| RSVYSDLSQTYRLQDFFETM | -1.69 ± 2.4 |
| RSYESCRAWLDEDGSVPIEC | 1 ± 0.49 |
| RSYSNPLSSVSLSNYSFGVY | -0.353 ± 0.36 |
| RTCHDWVIEGSMRILTARIM | -1.29 ± 1.8 |
| RTDLGVRIKF | 0.77 ± 0.55 |
| RTDWYGEDWHYV | -1.31 ± 1.4 |
| RTEVIKMNLG | -0.085 ± 0.42 |
| RTKLVEHSMFCNGGEKRHTP | 0.574 ± 0.56 |
| RTRLFHDLLLCAAHIRLRIR | 0.133 ± 0.38 |
| RTSLNLNIRNTWAKWLGAEF | 4.29 ± 0.1 |
| RTSLSLSKVAFNWMFQRYSS | 0.181 ± 1 |

| Substance | amyloid nucleation score |
| --- | --- |
| RVAYSGEL | 0.196 ± 0.83 |
| RVDHVGRGQSREGGPDAGRV | 0.217 ± 0.26 |
| RVFLQTGWVCGVRHANNRLR | -0.006 ± 0.87 |
| RVFQSNPCGT | 0.109 ± 1.4 |
| RVGAPFNLVRSCSGATLCEV | -0.023 ± 0.63 |
| RVGESVI | 0.348 ± 0.55 |
| RVGKYDLKSRDLGVGVDGVG | 0.586 ± 0.29 |
| RVGQSCCDFT | -0.047 ± 1.1 |
| RVILARHHPDDCMGLR | -0.26 ± 0.39 |
| RVITYSV | -0.016 ± 1.4 |
| RVKEPFRTYSRTALMC | 0.306 ± 0.41 |
| RVKYAGGPIGYLFCLWVLCW | -0.895 ± 1.5 |
| RVNLKGWKRHSIRRSNMYRV | inactive |
| RVSFQIVTVGWC | -1.13 ± 1.2 |
| RVSMVEVNLIYYMLPGHA | -0.125 ± 0.54 |
| RVSVDRPQRVGTGSPCCGGD | 2.77 ± 0.11 |
| RVTDLYFASGGQLMQRSVLL | 0.331 ± 0.6 |
| RVTFLWLCLYQGMVALVNSP | -0.156 ± 0.84 |
| RVVMLCLVCLFGVRGS | 0.827 ± 0.52 |
